# Values joined by “and” are separate entries in the source; they are usually repeats but may differ in a detail not shown here. Identical values can stand only once.
# T1: Rhesus D antigen on RhD-positive human red blood cells (human, UniProt Q02161 2-417)
# T1 sequence (looked up): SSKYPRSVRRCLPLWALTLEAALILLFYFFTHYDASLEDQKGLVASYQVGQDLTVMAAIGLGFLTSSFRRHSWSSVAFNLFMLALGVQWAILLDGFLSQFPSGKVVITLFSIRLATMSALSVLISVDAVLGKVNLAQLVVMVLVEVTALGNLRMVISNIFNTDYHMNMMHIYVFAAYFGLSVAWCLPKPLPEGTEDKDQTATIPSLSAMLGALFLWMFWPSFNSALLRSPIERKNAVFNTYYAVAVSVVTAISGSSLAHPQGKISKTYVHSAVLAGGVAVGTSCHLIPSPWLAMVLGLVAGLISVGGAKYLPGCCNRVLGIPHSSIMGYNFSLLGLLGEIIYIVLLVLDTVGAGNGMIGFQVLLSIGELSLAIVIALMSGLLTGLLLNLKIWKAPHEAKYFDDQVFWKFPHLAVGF
# Tests used:
# [1] = target: T1, Rhesus D antigen on RhD-positive human …; experiment: cell-based or functional assay
# [2] = target: T1, Rhesus D antigen on RhD-positive human …; experiment: hemagglutination of bromelain-treated RhD-positive erythrocytes, Technicon Autoanalyzer, against the NIBSC polyclonal standard
# Experimental: Briefly, bromelain-treated RhD positive red cells are incubated with various concentrations of anti-RhD antibodies. The cells are allowed to agglutinate over a period of time. The agglutinated cells are removed in the autoanalyzer and the rest of the erythrocytes are lysed using detergent. The optical density of the released hemoglobin is measured spectrophotometrically. The anti-D concentrations of the samples are calculated using a standard graph obtained from various concentrations of the Anti-D standard.
"ADCC EC50 (ng of Active Ab/ml), Average [1]","ADCC EC50 (ng of Active Ab/ml), Experiment 1 [1]","ADCC EC50 (ng of Active Ab/ml), Experiment 2 [1]",Agglutination Titer (µg of Active Ab per mg of Protein) [2],Binder
1.1 ng of Active Ab/ml and 0.7 ng of Active Ab/ml,0.7 ng of Active Ab/ml and 0.4 ng of Active Ab/ml,1.5 ng of Active Ab/ml and 0.9 ng of Active Ab/ml,,"anti-RhD monoclonal antibody RhD1 (antibody, human IgG1, lambda) heavy: not shown light: QSALTQPASVSGSPGQSITISCSGSSSDVGGYKYVSWYQQHPGKAPQLMIYDVNNRPSGVSNRFSGSKSGNTASLTISGLQAEDEADYYCSSYTSSSTRVFGGGTKLTVLGQPKAAPSVTLFPPSSEELQANKATLVCLISDFYPGAVTVAWKADSSPVKAGVETTTPSKQSNNKYAASSYLSLTPEQWKSHKSYSCQVTHEGSTVEKTVAPTECS"
0.3 ng of Active Ab/ml,0.1 ng of Active Ab/ml,0.5 ng of Active Ab/ml,303 µg of Active Ab per mg of Protein,"RhD4 (IgG3 variant of RhD1: RhD1V3C heavy chain and RhD1 light chain) (antibody, IgG3, lambda chimera; The limits were converted from the nucleotide limits: variable region nt 58-448, constant region from nt 449; The NheI site was made by silent mutations only) heavy: QVQLVQSGAEVKKPGSSVKVSCKASGGIFRTYAISWVRQAPGQGLEWMGGIIPMFGTVNYAQKFQGRVTISADKSTSTAYMELSRLRSEDTAVYYCARPPSGGCGGDCSRRGYYYAMDVWGQGTTITVSSASTKGPSVFPLAPCSRSTSGGTAALGCLVKDYFPEPVTVSWNSGALTSGVHTFPAVLQSSGLYSLSSVVTVPSSSLGTQTYTCNVNHKPSNTKVDKRVELKTPLGDTTHTCPRCPEPKSCDTPPPCPRCPEPKSCDTPPPCPRCPEPKSCDTPPPCPRCPAPELLGGPSVFLFPPKPKDTLMISRTPEVTCVVVDVSHEDPEVQFKWYVDGVEVHNAKTKPREEQFNSTFRVVSVLTVLHQDWLNGKEYKCKVSNKALPAPIEKTISKTKGQPREPQVYTLPPSREEMTKNQVSLTCLVKGFYPSDIAVEWESSGQPENNYNTTPPMLDSDGSFFLYSKLTVDKSRWQQGNIFSCSVMHEALHNRFTQKSLSLSPGK light: QSALTQPASVSGSPGQSITISCSGSSSDVGGYKYVSWYQQHPGKAPQLMIYDVNNRPSGVSNRFSGSKSGNTASLTISGLQAEDEADYYCSSYTSSSTRVFGGGTKLTVLGQPKAAPSVTLFPPSSEELQANKATLVCLISDFYPGAVTVAWKADSSPVKAGVETTTPSKQSNNKYAASSYLSLTPEQWKSHKSYSCQVTHEGSTVEKTVAPTECS"
0.3 ng of Active Ab/ml and 0.2 ng of Active Ab/ml,0.2 ng of Active Ab/ml and 0.1 ng of Active Ab/ml,0.3 ng of Active Ab/ml and 0.2 ng of Active Ab/ml,,"anti-RhD monoclonal antibody RhD3 (antibody, human IgG3, kappa, V domains shown) VH: QVTLKESGPVLVKPTETLTLTCTVSGFSLNNARMGVSWIRQPPGKALEWLAHIFSNDEKSYSTSLKSRLTISKDTSKSQVFLTMTNMDPVDTATYYCARTPITMVRGAIRLYYYYYMDVWGKGTTVTVSS VL: DIQVTQSPSSLSASVGDRVTINCRASQSIGTYLNWYQQKPGKAPNLLIYAASSLQSGVPSRFSGSGSGTDFTLTISSLQPEDFATYYCQQTYSTPTWTFGRGTKVEIKR"

# Source: patent US20120027769A1 (BHARAT SERUMS AND VACCINES, published 2012)
